Paper PMC5445526

Key:
[1] = biological target: (GB1)2-AXB; experiment: MALDI-TOF mass spectrometry
[2] = biological target: (GB1)2-AXB; experiment: SDS-PAGE with gel densitometry
[3] = biological target: (GB1)2-AXB; experiment: SEC
[4] = SEC
[5] = biological target: (GB1)2-AXB; experiment: SEC + other: SDS-PAGE with gel densitometry
[6] = biological target: (GB1)2-BXA; experiment: MALDI-TOF mass spectrometry
[7] = biological target: (GB1)2-BXA; experiment: SDS-PAGE with gel densitometry
[8] = biological target: (GB1)2-BXA; experiment: SEC
[9] = biological target: (GB1)2-BXA; experiment: SEC + other: SDS-PAGE with gel densitometry
[10] = biological target: AXB-(GB1)2; experiment: MALDI-TOF mass spectrometry
[11] = biological target: AXB-(GB1)2; experiment: SDS-PAGE with gel densitometry
[12] = biological target: AXB-(GB1)2; experiment: SEC
[13] = biological target: AXB-(GB1)2; experiment: SEC + other: SDS-PAGE with gel densitometry
[14] = biological target: BXA-(GB1)2; experiment: MALDI-TOF mass spectrometry
[15] = biological target: BXA-(GB1)2; experiment: SDS-PAGE with gel densitometry
[16] = biological target: BXA-(GB1)2; experiment: SEC
[17] = biological target: BXA-(GB1)2; experiment: SEC + other: SDS-PAGE with gel densitometry

In the case of (GB1)2-AXB, the stoichiometry N [1] is reported as 2, the dimer content by SDS-PAGE densitometry (%) [2] is reported as 93% and the stoichiometry N [3] is reported as 2. The dimer content by SEC (%) [4] was 78% and the overall catenation efficiency (%) [5] was 73%.
With (GB1)2-BXA the stoichiometry N [6] was 2, the dimer content by SDS-PAGE densitometry (%) [7] was 83% and the stoichiometry N [8] was 2. The dimer content by SEC (%) [4] was 92% and the overall catenation efficiency (%) [9] was 76%.
Work on AXB-(GB1)2 yielded a stoichiometry N [10] of 2, a dimer content by SDS-PAGE densitometry (%) [11] of 80% and a stoichiometry N [12] of 2. For the same substance, the dimer content by SEC (%) [4] was 82% and the overall catenation efficiency (%) [13] was 66%.
BXA-(GB1)2 showed a stoichiometry N [14] of 2, a dimer content by SDS-PAGE densitometry (%) [15] of 86% and a stoichiometry N [16] of 2. The dimer content by SEC (%) [4] was 97% and the overall catenation efficiency (%) [17] was 83%.
